Among the data in US20240116985A1, “STAPLED PEPTIDES AND METHODS THEREOF” (priority 2020, published 2024) are IC50, EC50 and DLD1 4% Abs IC50 values, retold here.

Starred links: 1 amine or outer side, 2 acyl side, 3 side chain; linkers in the order of their positions; H or OH if unused. Positions of bridges follow the written chain, without caps; N, C: chain ends. Non-standard residues stand in square brackets, D forms with d. Primed or numbered codes have the meaning given here. No end group written: not given here. PyrS2″ = (S)-3-amino-1-((pent-4-en-1-yloxy)carbonyl)pyrrolidine-3-carboxylic acid (stapling residue), C=CCCCOC(=O)N1CC[C@@](N[*:1])(C(=O)[*:2])C1; B5(4) = 2,2-bis(4-pentenyl)glycine = 2-amino-2-(pent-4-en-1-yl)hept-6-enoic acid (stitching residue), C=CCCCC(CCCC=C)(N[*:1])C(=O)[*:2]; B5(5) = 2,2-bis(4-pentenyl)glycine, 2-amino-2-(pent-4-en-1-yl)hept-6-enoic acid (stitching residue), C=CCCCC(CCCC=C)(N[*:1])C(=O)[*:2]; TfeGA = (S)-2-amino-3-((carboxymethyl)(2,2,2-trifluoroethyl)amino)propanoic acid, O=C([C@H](CN(CC(=O)[*:3])CC(F)(F)F)N[*:1])[*:2]; PyrS2 = (S)-3-amino-1-((pent-4-en-1-yloxy)carbonyl)pyrrolidine-3-carboxylic acid, C=CCCCOC(=O)N1CC[C@@](N[*:1])(C(=O)[*:2])C1; SPip2 = 4-amino-1-((pent-4-en-1-yloxy)carbonyl)piperidine-4-carboxylic acid, C=CCCCOC(=O)N1CCC(N[*:1])(C(=O)[*:2])CC1; B5(25) = 2-amino-2-(pent-4-en-1-yl)hept-6-enoic acid (stitching residue), C=CCCCC(CCCC=C)(N[*:1])C(=O)[*:2]; EtGA = (S)-2-amino-3-((carboxymethyl)(ethyl)amino)propanoic acid, CCN(CC(=O)[*:3])C[C@H](N[*:1])C(=O)[*:2]; B5 = 2-amino-2-(pent-4-en-1-yl)hept-6-enoic acid, C=CCCCC(CCCC=C)(N[*:1])C(=O)[*:2]; Phe(3-COOH) = N[C@@H](Cc1cccc(C(=O)O)c1)C(=O)O; Phe(2-CF3) = N[C@@H](Cc1ccccc1C(F)(F)F)C(=O)O; Phe(2-Cl) = N[C@@H](Cc1ccccc1Cl)C(=O)O; Bta = N[C@@H](Cc1csc2ccccc12)C(=O)O; αAllylPro = C=CC[C@@]1(C(=O)O)CCCN1; tBuAla = CC(C)(C)C[C@H](N)C(=O)O; 3Thi = N[C@@H](Cc1ccsc1)C(=O)O; Aad = N[C@@H](CCCC(=O)O)C(=O)O; S8 = C=CCCCCCC[C@](C)(N)C(=O)O; Aib = CC(C)(N)C(=O)O A value given as a limit tells only on which side of the number the result lay.

Test [1] addresses Bcat-Halo (UniProt P35222). Briefly: NanoBRET Abs IC50; B-cat-Halo / TCF4-Luc engagement in HEK293 cells. (In general: Bioluminescence resonance energy transfer reports proximity on the nanometre scale.)
In test [2] the target is full-length beta-Catenin (Uniprot ID P35222) (Homo sapiens (Human)) (UniProt P35222). In words: fluorescence polarization competition; full-length beta-catenin, 5FAM-TCF4 10-53 probe as competitor. A general note: Fluorescence polarisation rises when a labelled molecule tumbles more slowly, as on binding a larger partner.
Target sequence in this assay (P35222 whole entry, one chain of several): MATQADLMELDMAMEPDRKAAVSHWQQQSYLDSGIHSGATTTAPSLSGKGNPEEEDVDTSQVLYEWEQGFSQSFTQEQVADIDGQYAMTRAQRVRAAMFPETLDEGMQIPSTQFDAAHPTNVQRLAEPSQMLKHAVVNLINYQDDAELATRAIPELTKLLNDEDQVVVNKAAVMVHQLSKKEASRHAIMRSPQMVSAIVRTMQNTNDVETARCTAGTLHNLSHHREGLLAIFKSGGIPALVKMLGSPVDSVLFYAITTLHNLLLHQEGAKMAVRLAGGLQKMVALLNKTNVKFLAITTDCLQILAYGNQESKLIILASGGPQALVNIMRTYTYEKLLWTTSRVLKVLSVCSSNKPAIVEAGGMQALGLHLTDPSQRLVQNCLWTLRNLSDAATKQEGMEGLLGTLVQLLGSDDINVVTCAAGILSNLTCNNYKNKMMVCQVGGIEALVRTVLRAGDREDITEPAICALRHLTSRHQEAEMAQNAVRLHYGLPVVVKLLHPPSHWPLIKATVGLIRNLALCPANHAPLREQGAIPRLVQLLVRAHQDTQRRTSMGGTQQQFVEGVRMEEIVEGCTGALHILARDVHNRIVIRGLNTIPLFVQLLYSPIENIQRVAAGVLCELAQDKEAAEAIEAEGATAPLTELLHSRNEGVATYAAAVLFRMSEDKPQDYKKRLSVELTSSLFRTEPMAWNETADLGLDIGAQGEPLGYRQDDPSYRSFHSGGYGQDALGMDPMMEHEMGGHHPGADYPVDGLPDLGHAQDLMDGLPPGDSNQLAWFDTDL
For test [3] the target is unchanged. In words: fluorescence polarization competition; full-length beta-catenin with 5FAM-TCF4(10-53) probe as competitor.
Target sequence in this assay (P35222 whole entry, one chain of several): as above
Test [4] has the same target. Briefly: fluorescence polarization competition; full-length beta-catenin, competitor 5FAM-TCF4(10-53) probe.
The target is the same in test [5]. In words: fluorescence polarization competition; full-length beta-catenin, 5FAM-TCF4 10-53 probe.
Target sequence in this assay (P35222 whole entry, one chain of several): as above
The target is the same in test [6]. In words: FP competition; full-length beta-catenin + 5FAM-TCF4(10-53) probe.
Target sequence in this assay (P35222 whole entry, one chain of several): as above
For test [7], the target named is Bcat-Halo (UniProt P35222). In words: NanoBRET (Abs IC50) in HEK293 cells; Bcat-Halo / TCF4-Luc.
The target of test [8] is full-length beta-Catenin (Uniprot ID P35222) (Homo sapiens (Human)) (UniProt P35222). In words: fluorescence polarization competition; peptide titrated against 10 nM full-length beta-catenin + 10 nM 5FAM-TCF4(10-53) probe.
Target sequence in this assay (P35222 whole entry, one chain of several): as above
Test [9] shares this target. Briefly: cell-based or functional assay.
Target sequence in this assay (P35222 whole entry, one chain of several): as above
The target of test [10] is B-cat-Halo (beta-catenin HaloTag NanoBRET construct expressed in HEK293 cells) (UniProt P35222). In words: NanoBRET Abs IC50 in HEK293 cells; Bcat-Halo, competitor TCF4-Luc.
The target in test [11] is Bcat-Halo (UniProt P35222). Briefly: NanoBRET absolute IC50, HEK293 cells, Bcat-Halo/TCF4-Luc engagement.
For test [12], the target named is full-length beta-Catenin (Uniprot ID P35222) (Homo sapiens (Human)) (UniProt P35222). In words: FP competition, full-length beta-catenin, competitor probe 5FAM-TCF4 10-53.
Target sequence in this assay (P35222 2-781 limits assumed): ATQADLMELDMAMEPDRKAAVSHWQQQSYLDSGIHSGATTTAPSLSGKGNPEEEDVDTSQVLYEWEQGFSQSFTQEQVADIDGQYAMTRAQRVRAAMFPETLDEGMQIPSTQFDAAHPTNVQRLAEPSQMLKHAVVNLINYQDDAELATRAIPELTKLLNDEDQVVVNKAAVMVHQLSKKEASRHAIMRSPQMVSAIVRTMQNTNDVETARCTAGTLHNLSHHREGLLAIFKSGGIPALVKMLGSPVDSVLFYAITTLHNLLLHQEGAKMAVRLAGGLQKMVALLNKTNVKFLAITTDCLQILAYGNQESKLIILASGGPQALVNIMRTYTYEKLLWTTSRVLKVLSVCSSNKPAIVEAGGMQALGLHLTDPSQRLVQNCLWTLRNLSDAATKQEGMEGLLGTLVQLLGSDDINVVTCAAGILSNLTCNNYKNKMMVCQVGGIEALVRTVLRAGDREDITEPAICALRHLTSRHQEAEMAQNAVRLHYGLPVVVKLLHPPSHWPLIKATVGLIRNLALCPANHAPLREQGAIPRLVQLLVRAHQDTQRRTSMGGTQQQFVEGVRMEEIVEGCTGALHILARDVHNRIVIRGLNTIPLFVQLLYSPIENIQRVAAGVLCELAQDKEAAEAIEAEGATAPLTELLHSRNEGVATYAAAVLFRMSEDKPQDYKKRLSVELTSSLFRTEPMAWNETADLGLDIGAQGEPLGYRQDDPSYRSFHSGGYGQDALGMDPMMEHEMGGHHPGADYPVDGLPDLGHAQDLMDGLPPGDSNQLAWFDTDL

Sequence of Bcat-Halo (P35222 whole entry): as the sequence (P35222 whole entry, one chain of several) above
Sequence of B-cat-Halo (beta-catenin HaloTag NanoBRET construct expressed in HEK293 cells) (P35222 whole entry): as the sequence (P35222 whole entry, one chain of several) above

B1: I-2593 (peptide)
peptide: Ac-[αAllylPro]D[tBuAla][B5]D[Phe(3-COOH)]QAFL[SPip2][3Thi][Bta]A-NH2
modifications: staple 1-4; staple 4-11 (inferred); also: later-eluting HPLC staple isomer composition
By IC50 is commonly meant the concentration at which inhibition is half-maximal. Take B1: the results for the IC50 (in the test with Bcat-Halo [1]; in test [2]) were 29400 nM and 27 nM, respectively.

B2: I-2592 (peptide)
peptide: Ac-[αAllylPro]D[tBuAla][B5]D[Phe(3-COOH)]QAFL[SPip2][3Thi][Bta]A-NH2
modifications: staple 1-4; staple 4-11 (inferred); also: earlier-eluting HPLC staple isomer composition
For B2, the IC50 is more than 20000 nM with Bcat-Halo [1] and 37 nM in [2].

By EC50 is commonly meant the concentration at which the effect is half-maximal. As to Ac-[αAllylPro]DI[B5(5)]D[EtGA]AAFQ[S8]F[Bta]Q-NH2 (staple 1-4, 4-11; also: staple isomer 2, later eluting HPLC peak) [I-609], the IC50 in test [3] and in test [5] was 80 nM throughout. The molecule further returned an EC50 in [4] of 80 nM.

B3: I-608 (peptide)
peptide: Ac-[αAllylPro]DI[B5(5)]D[EtGA]AAFQ[S8]F[Bta]Q-NH2
modifications: staple 1-4, 4-11; not fully specified; printed as Ac-PL3-Asp-Ile-B5-Asp-EtGa-Ala-Ala-Phe-Gln-S8-Phe-BztA-Gln-NH2
As for B3, the IC50 in test [3] and in test [5] was 211 nM throughout. In test [4], this molecule displayed an EC50 of 211 nM.

Turning to Ac-[αAllylPro]D[tBuAla][B5(5)]D[Phe(3-COOH)]AAFA[PyrS2″][Phe(2-Cl)][Bta]V-NH2 (staple 1-4, 4-11) [I-2024], the IC50 was 78 nM in test [6] and 17900 nM with Bcat-Halo [7].

With Ac-[αAllylPro]DI[B5]D[TfeGA]AAFQ[S8]F[Bta]Q-NH2 (staple 1-4, 4-11; not fully specified) [I-610], the IC50 in [3] and in [5] was 54 nM throughout. The EC50 in [4] was 54 nM.

With Ac-[αAllylPro]DI[B5]D[Aad]AAFQ[S8]F[Bta]Q-NH2 (staple 1-4, 4-11) [I-612], the IC50 in test [3] and in test [5] was 64 nM in each case. Besides, the EC50 in test [8] is 64 nM.

B4: I-2579 (peptide)
peptide: Ac-[αAllylPro]D[tBuAla][B5]D[Phe(3-COOH)][Aib]AFK(Ac)[PyrS2][Phe(2-CF3)][Bta]AA-NH2
modifications: staple 1-4, 4-11; not fully specified; printed as Ac-PL3-Asp-Npg-B5-Asp-3COOHF-Aib-Ala-Phe-AcLys-PyrS2-2F3MeF-BztA-Ala-Ala-NH2
As for B4, the IC50 is 4700 nM in the test with Bcat-Halo [1] and 41 nM in test [2].

B5: I-2576 (peptide)
peptide: Ac-[αAllylPro]D[tBuAla][B5(25)]D[Phe(3-COOH)][Aib]AF[dS][PyrS2″][3Thi][Bta][dS]A-NH2
modifications: staple 1-4, 4-11 (inferred); not fully specified; printed as Ac-PL3-Asp-Npg-B5-Asp-3COOHF-Aib-Ala-Phe-dSer-PyrS2-3Thi-BztA-dSer-Ala-NH2
Regarding B5, the IC50 was found to be 16100 nM with Bcat-Halo [1] and 6 nM in test [2].

B6: I-2578 (peptide)
peptide: Ac-[αAllylPro]D[tBuAla][B5]D[Phe(3-COOH)][Aib]AFK(Ac)[PyrS2][3Thi][Bta]AA-NH2
modifications: staple 1-4, 4-11; not fully specified; printed as Ac-PL3-Asp-Npg-B5-Asp-3COOHF-Aib-Ala-Phe-AcLys-PyrS2-3Thi-BztA-Ala-Ala-NH2
For B6, the IC50 in the test with Bcat-Halo [1] amounted to 5500 nM; in test [2], 5 nM. The same molecule displayed a DLD1 4% Abs IC50 in test [9] of 4100 nM.

Ac-[αAllylPro]D[tBuAla][B5(5)]D[Phe(3-COOH)]AAFA[PyrS2″][Phe(2-Cl)][Bta][dA]-NH2 (staple 1-4, 4-11) [I-2026]: the IC50 in [6] turned out to be 26 nM; with Bcat-Halo [7] it was 9700 nM.

In the case of Ac-[αAllylPro]D[tBuAla][B5(5)]D[Phe(3-COOH)]AAFS[PyrS2″][Phe(2-Cl)][Bta]V-NH2 (staple 1-4, 4-11) [I-2028], the IC50 in test [6] came to 32 nM; with Bcat-Halo [7] it was 17600 nM.

Turning to Ac-[αAllylPro]D[tBuAla][B5(5)]D[Phe(3-COOH)]AAFA[PyrS2″][Phe(2-Cl)][Bta]A-NH2 (staple 1-4, 4-11) [I-2023], the IC50 in test [6] came to 32 nM; with Bcat-Halo [7], 7800 nM.

B7: I-2577 (peptide)
peptide: Ac-[αAllylPro]D[tBuAla][B5(25)]D[Phe(3-COOH)][Aib]AFS[PyrS2″][3Thi][Bta]SA-NH2
modifications: staple 1-4, 4-11 (inferred); not fully specified; printed as Ac-PL3-Asp-Npg-B5-Asp-3COOHF-Aib-Ala-Phe-Ser-PyrS2-3Thi-BztA-Ser-Ala-NH2
On to B7, for which the IC50 with Bcat-Halo [1] came out at 2700 nM; in test [2] it was 7 nM.

Regarding [αAllylPro]D[tBuAla][B5(4)]D[Phe(3-COOH)]AAFF[PyrS2″][Phe(2-CF3)][Bta]S-NH2 (staple 1-4; staple 4-11 (inferred)) [I-1342], the IC50 in test [10] was 7000 nM; with Bcat-Halo [11] it was 7000 nM; in test [12] it was 35 nM. Further, in [4], the EC50 amounted to 35 nM.

In the case of Ac-[αAllylPro]D[tBuAla][B5(5)]D[Phe(3-COOH)]AAFS[PyrS2″][Phe(2-Cl)][Bta]F-NH2 (staple 1-4, 4-11) [I-2029], the IC50 in [6] was found to be 35 nM; with Bcat-Halo [7] it was 26200 nM.

Take Ac-[αAllylPro]DI[B5]D[TfeGA]AAFQ[S8]F[Bta]Q-NH2 (staple 1-4, 4-11; also: later-eluting staple isomer) [I-611]: the IC50 in test [3] and in test [5] was 55 nM in each case. The EC50 in [8] is 55 nM.

Take Ac-[αAllylPro]D[tBuAla][B5(5)]D[Phe(3-COOH)]AAFN[PyrS2″][Phe(2-Cl)][Bta]V-NH2 (staple 1-4, 4-11) [I-2032]: the IC50 in [6] is 16 nM; with Bcat-Halo [7], 20900 nM.
